Assay results reported in patent US20030124568A1 (published 2003).
Ends that are not written are not given here.

B1: GIRK1NCprey3 (nucleotides 500-1193 of SEQ ID NO: 1, fragment of rat Mogli, in pPC86) (other)
chain: RIGMVGEGNIQSARYKKESKGGIIKPGSEADFSSSSSTGSISAPEVHMSTTGNKRASFSRNRGPHGRSNGAPSHKSGSSPPSPREKDLVSMLCRNPLSPSNIHPSYAPSSPSSSNSGSYKGSDCSPVMRRSGRYMSCGENHGVKPPNPEQYLTPLQQKEVTVRHLRTKLKESERRLHERESEIMELKSQLARMREDWIEEECHRVEAQLALKEARKEIKQLKQVIETMRS
notes: Residue range converted from the printed nucleotide range; also called prey plasmid; Mogli fragment
B2: nucleotide region 1011-1193 of SEQ ID NO: 1 (overlap of GIRK1NCprey2 and GIRK1NCprey3) cloned into the plasmid pPC86 (other, not shown: small tags and cut ends)
chain: ESERRLHERESEIMELKSQLARMREDWIEEECHRVEAQLALKEARKEIKQLKQVIETMRS
modifications: also: fused to GAL4 activation domain with pPC86 linker and tail residues
notes: Residue range converted from the printed nucleotide range; also called 1NCprey23o construct
B3: GIRK1NCprey2 (nucleotides 1011-1349 of SEQ ID NO: 1, fragment of rat Mogli, in pPC86) (other)
chain: ESERRLHERESEIMELKSQLARMREDWIEEECHRVEAQLALKEARKEIKQLKQVIETMRSSLADKDKGIQKYFVDINIQNKKLESLLQSMEMAHNSSLRDELCLDFSFDSPE
notes: as for B1

Experiments:
Experiment in all cases: yeast two-hybrid cotransformation in Y190
[1] = target: T1, carboxyl terminus of the GIRK1 subunit cloned into the vector pDBLeu (rat, UniProt P04386 1-147; P63251 180-501, limits assumed)
T1 construct: Yeast two-hybrid bait with the GIRK1 C terminus alone; also called C terminus of GIRK1
From the text: (§1) The DNA (accession no.: U09243, EMBL datebase) coding for the carboxyl terminus or the amino terminus of the GIRK1 subunit was amplified by PCR starting from the plasmid “GIRK1NC-bait” using the primers GGIRK1-4s (5′-[…]-3′) and GGIRK1-as (5′-[…]-3′) or GIRK1-NC-s (5′ -[…]-3′) and GIRK1-N-as (5′-[…]-3′) and cloned into the vector pDBLeu. Each of the plasmids was cotransformed with the pPC86 plasmid. GIRK1NCprey2 (SEQ ID NO: 1 nucleotides 1011-1349) or with the plasmid GIRK1NCprey3 (SEQ ID NO: 1, nucleotides 500-1193) into the yeast strain Y190. […] It is evident that the interaction with Mogli takes place only in the presence of both intracellular portions of GIRK1.

[2] = target: T2, amino terminus of the GIRK1 subunit cloned into the vector pDBLeu (rat, UniProt P04386 1-147; P63251 1-80, limits assumed)
T2 construct: Yeast two-hybrid bait with the GIRK1 N terminus alone; also called N terminus of GIRK1
From the text: as §1

[3] = target: T3, GIRK1-NC-bait (GAL4-DNA binding domain fused to the N terminus of the GIRK1 subunit, a linker sequence GSSGSS … (rat, UniProt P04386 1-147; P63251 1-80; P63251 180-501, limits assumed)
T3 construct: Yeast two-hybrid bait in pDBLeu, expressed in yeast strain Y190
From the text: as §1

Binder | binding result [1] | binding result [2] | binding result [3]
B1 | no binding | no binding | 
B2 |  |  | no binding
B3 | no binding | no binding | 
